Columns and labels:
[1] = tested on: K. pneumoniae strain Kp4211 lux; test: high throughput serum bactericidal assay (SBA), complement-dependent killing; type: cell-based, Klebsiella pneumoniae; conditions: for complement-dependent killing in SBA: FIG. 1B; for complement-dependent killing (SBA) in primary screening: strain Kp4211 (LPS-O1)
Description: Peripheral blood mononuclear cells (PBMC) and sera were separated from buffy coats from healthy blood donors (N=567). PMBC were stored in liquid nitrogen whereas the plasma was stored at 4° C. To identify Klebsiella pneumoniae immune donors, all the available sera were tested for binding to Kp43816 and Kp4211 (LPS-O1 serotype), as well as to the unencapsulated mutant strain Kp43816ΔcpsB and the double mutant Kp43816ΔcpsBΔwaaL. […] In addition, all available sera were tested for their bactericidal activity in the presence of complement using a high-throughput serum bactericidal assay (SBA assay). Overnight cultures of luminescent K. pneumoniae strain 4211 (lux) were diluted in Muller Hinton II media to make OD600 to be 0.003. Equal volume of sera, 4211 lux, and baby rabbit serum (Cedarlane) were mixed in 384 well plates and incubated at 37° C. for two hours with shaking (250 rpm). The relative light units (RLUs) were then measured using an Envision Multilabel plate reader (Perkin Elmer). The percentage of killing was determined by comparing RLU derived from assays with no antibodies to RLU obtained from human sera.
The susceptibility of the K. pneumoniae strain Kp4211 lux to serum and antibody dependent killing was measured by high throughput serum bactericidal assay (SBA). Overnight cultures of luminescent K. pneumoniae strain 4211 (lux) were diluted in Muller Hinton II media to make OD600 to be 0.003. Equal volume of antibodies, 4211 lux, and baby rabbit serum (Cedarlane) were mixed in 384 well plates and incubated at 37° C. for two hours with shaking (250 rpm). The relative light units (RLUs) were then measured using an Envision Multilabel plate reader (Perkin Elmer). The percentage of killing was determined by comparing RLU derived from assays with no antibodies to RLU obtained from anti-K. pneumoniae mAbs and a negative control mAb.

purified O1 LPS = test: ELISA binding to purified O1 LPS; set-up: species or system Klebsiella pneumoniae; conditions: FIG. 1A
Description: Binding to purified O1 LPS was assayed by standard ELISA method. Briefly, ELISA plates (Nunc MaxiSorp) were coated with purified O1 LPS in PBS, pH 7.2, overnight at 4 C, followed by blocking the plates with PBS supplemented with 1% BSA (PBS-B). The coated plates were incubated with series dilutions of monoclonal antibodies for 1 h at room temperature. The plates were then washed with PBS containing 0.1% Tween-20 (PBS-T) before HRP-conjugated anti-human secondary antibodies were added for 1 hour followed by TMB TMB (3,3′,5,5′-Tetrametheylbenzidine) substrates. The absorbance of 450 nm was measured by microplate reader (Molecular Devices) and the data were plotted with Prism software.

[2] = tested on: K. pneumoniae capsule mutant strain 43816ΔcpsB Lux; test: bioluminescent opsonophagocytic killing (OPK) assay with HL-60 cells; type: cell-based, Klebsiella pneumoniae; conditions: for induction of OPK killing: FIG. 1C
Description: (§1) PBMC donors were ranked based on their binding titers as well as their SBA and OPK activity. OPK assays were performed as described with modifications (Wang, Q. et al. Target-Agnostic Identification of Functional Monoclonal Antibodies Against Klebsiella pneumoniae Multimeric MrkA Fimbrial Subunit J Infect Dis. 2016 Jun. 1; 213(11):1800-8). Briefly, log phase cultures of luminescent K. pneumoniae capsule mutant strain 43816ΔcpsB (43816ΔcpsB Lux) were diluted to ˜2×10^6 cells/ml. Bacteria, diluted baby rabbit serum providing complement (Cedarlane, pre-absorbed with Kp43816ΔcpsB, 1:10), dimethylformamide (DMF) differentiated HL-60 cells, and sera were mixed in 384-well plates and incubated at 37° C. for two hours with shaking (250 rpm). The relative light units (RLUs) were then measured using an Envision Multilabel plate reader (Perkin Elmer). The percentage of killing was determined by comparing RLU derived from assays with no antibodies to RLU obtained from human sera.
as §1, with “OPK” for “PBMC donors were ranked based on their binding titers as well as their SBA and OPK activity. OPK”, “al., J. Infect.” for “al. Target-Agnostic Identification of Functional Monoclonal Antibodies Against Klebsiella pneumoniae Multimeric MrkA Fimbrial Subunit J Infect”, “213:1800-8 (2016)).” for “2016 Jun. 1; 213(11):1800-8).”, “antibodies” for “sera”, “anti-K. pneumoniae mAbs and a negative control mAb.” for “human sera.”

[3] = tested on: Klebsiella pneumoniae of the LPS-O1 serotype; test: primary screening, binding to whole bacteria
Excerpt: KPA27 and KPE33 were isolated from the peripheral blood of two different immune donors: #487 and #262, respectively. […] KPA27 and KPE33 were isolated from immune donors as IgG2 antibodies.
KPB202 and KPJ4 were isolated from tonsillar B cells of two different donors: T6 (KPB202) and T8 (KPJ4). […] KPB202 and KPJ4 were isolated from donors as IgG1 and IgG2 antibodies, respectively.

LPS (O1) = test: LPS neutralization assay, RAW264.7-lux NF-κB luciferase reporter; type: cell-based, murine
Description: LPS neutralization was assayed by utilizing a murine RAW264.7 macrophage cell line carrying a firefly luciferase reporter gene under the control of an NF-κB-responsive promoter (RAW264.7-lux). Serially diluted antibody stocks were mixed with LPS in a 1:1 ratio and incubated at 4° C. for 1 hr. Antibody/LPS mixture was then diluted 1:10 into assay plates containing pre-seeded RAW264.7-lux cells (5e3 cells/well), which were then placed at 37° C./5% CO2 for 2.5 hours. Following incubations, Steady Glo (Promega) was then added to each well and incubated for another 20 min protected from light. The relative light units (RLUs) were then measured using an Envision Multilabel plate reader (Perkin Elmer). The percentage of inhibition was determined by comparing RLU derived from assays with no antibodies to RLU obtained from anti-K. pneumoniae mAbs and a negative control mAb. Activation of TLR4 receptors by bacterial LPS leads to downstream activation of the NF-κB transcriptional regulator. A decrease in induction of NF-κB-responsive luciferase activity was used to quantify LPS neutralization activity by LPS mAbs.

O1 LPS = test: Octet binding affinity to O1 LPS; set-up: species or system Klebsiella pneumoniae; conditions: average, from on-rate and off-rate, read-out: affinity constant (KD) to O1 LPS
Excerpt: In order to reduce potential sequence liabilities for antibody development including potential immunogenicity due to anti-drug antibodies, an unpaired Cysteine in the light chain CDR3 of KPE33 was exchanged with Threonine (T), and somatic mutations in the frameworks 1, 2, and 4 of KPE33 were replaced with germ line residues (as summarized in FIG. 5). CDRs were maintained as wildtype, except for the C107T substitution described above. The optimized KPE33 was named KPE33v2016. […] This platform provides a powerful tool to measure the rate of biomolecular complex formation and complex stability in a more biologically meaningful setting. Briefly, Protein A coated sensors were coated with 2 μg/mL O1 LPS for 10 minutes before being dipped into solution containing 0.2 μg/mL anti-O1 LPS mAbs in Kinetics buffer (ForteBio, dilute 10× to 1× with PBS). Changes in the number of molecules bound to the biosensor caused a shift in the interference pattern that was recorded in real time. […] The affinity constant (KD) of KPE33 and KPE33v2016 to O1 LPS was calculated based on the on-rate and off-rate from Octet sensorgram.
KPE33v2016 was further optimized, thereby creating two new variants—KPE33 H32+L2016(1EQ) and KPE33 H33+L2016(1EQ). Both of these variants contain a Methionine to Isoleucine mutation adjacent to CDRH1, a Tryptophan to Tyrosine mutation in CDRH2, an Aspartate to Glutamate mutation adjacent to CDRH2, Asparagine to Glutamine and Methionine to Leucine mutations in FRH3 and an Aspartate to Asparagine mutation in CDRH3. In addition, KPE33 H32+L2016(1EQ) had four FRH3 residues changed to the germ-line residues, whereas KPE33 H33+L2016(1EQ) only has three of the same FRH3 residues changed to the germ-line. Both of these variants contain the same light chain as KPE33v2016, but with a single Glutamate to Glutamine mutation in residue 1.

B1: KPA27: human anti-O1 antigen antibody, VH SEQ ID NO:21, VL SEQ ID NO:22, isolated as IgG2 (antibody, V domains shown)
VH: QVQLVQSGAEVKKPGASVKVSCKASENTFNDFYMHWVRQAPGQGLEWMGWIHPDGVVTNYAQKFQGRVTMTRDTSINTVYMELNGLISDDTAVYYCMRDGPGSEGSWFDYWGQGTLVTVSS
VL: DIQMTQSPSTLSASVGDRVTITCRASQPVSNRLAWYQQKPGRAPTLLIYKASTLQSGVPLRFSGSGSGTEFTLTISSLQSDDFATYYCQQSQTFGQGTKVEIK
modifications: KPA27 VH Amino Acid Sequence; KPA27 VL Amino Acid Sequence
[1]
  SBA Kp4211lux IC50: 1.625 µg/mL
  complement-dependent killing in SBA: kill K. pneumoniae via complement-dependent killing
  complement-dependent killing (SBA) in primary screening: mediate complement-dependent killing
Purified O1 LPS
  binding to purified O1 LPS: bound to purified O1 LPS
[2]
  D Capsule OPK IC50: 0.67 µg/mL
  induction of OPK killing: induced OPK killing
[3]
  binding to bacteria in primary screening: bind to Klebsiella pneumoniae of the LPS-O1 serotype
LPS (O1)
  LPS neutralization: did not

B2: KPB202: human anti-O1 antigen antibody from tonsillar B cells, VH SEQ ID NO:39, VL SEQ ID NO:40, IgG1 (antibody, V domains shown)
VH: EVQLVESGGGLVQPGGSLSLSCAASGFTFSNFWVGWGRQAPGKGLEWVANINPDGSEKYYVDSVKGRVTISRDNAKNSLSLQMNSLRVEDAAVYYCARLGPFHPDCWGQGTLVTVSS
VL: DVVMTQSPLSLPVTLGQPASISCRSSQSLVHSDGNTYLNWFQQRPGQSPRRLIYEVSNRDSGVPDRFSGSGSGTDFTLKISRVEAEDIGVYYCMQGTHWPWTFGQGTKVEIK
modifications: KPB202 VH Amino Acid Sequence; KPB202 VL Amino Acid Sequence
[1]
  SBA Kp4211lux IC50: 0.0006 µg/mL
  complement-dependent killing in SBA: kill K. pneumoniae via complement-dependent killing
  complement-dependent killing (SBA) in primary screening: mediate complement-dependent killing
Purified O1 LPS
  binding to purified O1 LPS: bound to purified O1 LPS
[2]
  D Capsule OPK IC50: 0.0009 µg/mL
  induction of OPK killing: induced OPK killing
[3]
  binding to bacteria in primary screening: bind to Klebsiella pneumoniae of the LPS-O1 serotype
LPS (O1)
  LPS Neut (O1) IC50: 0.038 µg/mL
  LPS neutralization: neutralized LPS

B3: KPE33V2016: sequence optimized KPE33, VH SEQ ID NO:12, VL SEQ ID NO:13 (antibody, V domains shown)
VH: EVQLVESGGGLVQPGRSLRLSCAASGFIFDDYAMHWVRQAPGKGLEWVSGIAWKSGATNYADSVKGRFAISRDNSKKSMYLQMNSLGTEDTALYYCTRRRASGDDTFYYFDYWGQGTLVTVSS
VL: EIVLTQSPATLSLSPGERATLSCRASQNVNTNLAWYQQKPGQAPRLLIYDASNRATGIPARFSGSGSGTDFTLTISSLEPEDFAVYYCQQTTNWRYTFGQGTKLEIK
modifications: KPE33V2016 VH Amino Acid Sequence; KPE33V2016 VL Amino Acid Sequence
O1 LPS
  Kd: 4.13 nM

B4: KPJ4: human anti-O1 antigen antibody from tonsillar B cells, VH SEQ ID NO:30, VL SEQ ID NO:31, IgG2 (antibody, V domains shown)
VH: QVQLQQSGPGLVRPSQTLSLTCAISGDSVSSNTAAWNWIRQSPSRGLEWLGRTYYRSEWYNDYAVSVKSRITINPDTSKNQFSLQLNSVTPEDTAVYYCARISWNDLPAWGQGTLVTVSS
VL: DIVMTQSPDSLAVSLGERATINCKSSQSILYSSHNKNYLAWYQQKPGQPPKVLIYWASTRESGVPDRFSGSGSGTDFTLTISNLQAEDVAVYYCQQYCNIPYTFGQGTKLEIK
modifications: IgG2 constant regions; KBJ4 VH Amino Acid Sequence; KPJ4 VL Amino Acid Sequence
[1]
  SBA Kp4211lux IC50: 0.11 µg/mL
  complement-dependent killing in SBA: kill K. pneumoniae via complement-dependent killing
  complement-dependent killing (SBA) in primary screening: mediate complement-dependent killing
Purified O1 LPS
  binding to purified O1 LPS: bound to purified O1 LPS
[2]
  D Capsule OPK IC50: 0.011 µg/mL
  induction of OPK killing: induced OPK killing
[3]
  binding to bacteria in primary screening: bind to Klebsiella pneumoniae of the LPS-O1 serotype
LPS (O1)
  LPS neutralization: did not

Source: patent US12018068B2, “Anti-O1 antibodies and uses thereof” (priority 2016, dated 2024)
